Measurements: US20050136462

Tests used:
[1] = test system: Nb.BsaI N441D/R442G (A11) N441D/R442G; test: cleavage_in_vitro; details: bottom-strand nicking; estimated in cell extract
Nb.BsaI R442G R442G = test: cleavage_in_vitro; details: predominant nicking; about 8-fold lower than N441D/R442G

## GGTCTCNNNNN (double strand) [BsaI site (in supercoiled pUC19)]
[1]
  activity (units/g wet cells): 800000
Nb.BsaI R442G R442G
  activity (units/g wet cells): 100000
